Test results published in patent US20260258115A1 (MAPP BIOPHARMACEUTICAL, published 2026).
Where a chain is given by its changes, count along the chain named.

B1: ADI-22763 (antibody, V domains shown)
VH: EVQLVESGGGLIQPGGSLRLSCAASGFTFSTYEMNWVRQAPGKGLEWVSSISTSGSTKDYAGSVKGRFTVSRDNAKNSLYLQMNSLRAEDTAIYYCARVYYYDSSGYYLALFDYWGQGTLVTVSS
VL: EIVLTQSPSSLSASVGDRVTITCRASQSIASYLNWYQQKPGKAPKLLIYAASSLRSGVPSRFSGSGSGTDFTLTISSLQPEDFATYYCQQSYSTPSLTFGGGTKLEIK
notes: full-length IgG
B2: ADI-25467 (antibody, V domains shown)
VH: GVQLVESGPGLVKPSETLSLTCTVSGGSISSYYWSWIRQPPGKGLEWIGYIYYSGSTNYNPSLKSRVTISVDTSKNQFSLKLSSVTAADTAVYYCARGYYYDSSGYYPNDAFDIWGQGTMVTVSS
VL: not shown
notes: full-length IgG
B3: ADI-19476 (antibody, V domains shown)
VH: QVQLVESGPTLVKPTQTLTLTCTFSGFSLSTSRVGVGWIRQPPGKALEWLALIYWDDDKRYSPSLKSRLTITKDTSKNQVVLTMTNMDPVDTARYYCAHRSTYDILGGYYYFDYWGQGTLVTVSS
VL: QPVLTQPRSVSGSPGQSVTISCTGTSSDVGGYNYVSWFQQHPGKAPKLMIYDVSKRPSGVPNRFSGSKSGNTASLTISGLQAEDEADYFCCSYAGTYEVFGGGTKLTVL
notes: full-length IgG
B4: ADI-24852 (antibody, V domains shown)
VH: QVQLVESGAEVKKPGASVKVSCKASGYTFTSYAIHWVRQAPGQRLEWMGWINAGNGNTKYSQKFQGRVTITRDTSASTAYMELSSLRSEDTAVYYCASEESGYFDYWGQGTLVTVSS
VL: not shown
notes: full-length IgG; also called Ab 413
B5: ADI-22778 (antibody, V domains shown)
VH: EVQLVESGPGLVKPSETLSLTCTVSGGSINSYSWTWIRQPPGKGLEWLGSFDYSGSNTYNPSLKSRVTIAVDTSKNQFSLKLTSATAADTAVYYCARAPVYDSSGYYLYYFDNWGQGTLVTVSS
VL: DIQMTQSPSSLSASVGDRVTITCRASQSIASYLNWYQQKPGKAPKLLIFAASNLHSGVPSRFSGSGSGTTFTLTISSLQPEDFATYYCQQSYSIRFFTFGPGTKLEIK
notes: full-length IgG
B6: ADI-19505 (antibody, V domains shown)
VH: QVQLVQSGAEVKKPGESLKISCKGSGYSFTNYWIGWVRQMPGKGLEWMGITYPGDSDTRYSPSFQGQVTISADKSISTAHLQWDSLKASDTAMYYCARLRCTGSICYDAFDIWGQGTTVTVSS
VL: SYVLTQPLSVSVALGQTARITCGGNNIGSKNVHWYQQKPGQAPVLVIYRDNNRPSGIPERFSGSNSGNTATLTISRAQAGDEADYYCQVWDSSTGGDVFGAGTKVTVL
notes: full-length IgG
B7: ADI-24834 (antibody, V domains shown)
VH: QVQLVQSGGGLVQPGGSLRLSCAASGFTFSSYAMSWVRQAPGKGLEWVSTISGSGGSTYYADSVKGRFTISRDNSKNTLYLQMNSLRAEDTAVYYCATWKRWGSGYYYSYMDVWGKGTTVTVSS
VL: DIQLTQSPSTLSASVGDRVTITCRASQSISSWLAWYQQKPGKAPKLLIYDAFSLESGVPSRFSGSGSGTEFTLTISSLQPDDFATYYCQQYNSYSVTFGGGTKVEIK
notes: full-length IgG
B8: ADI-22760 (antibody, V domains shown)
VH: EVQLVESGGGLVQPGRSLRLSCVASGFTFDDYAMHWVRQAPGKGLEWVSGINWNSGGIGYADSVKGRFTISRDNTKNSLYLQMNSLRAEDTALYYCAKDGSALMGYGVEVWGQGTTVTVSS
VL: SYELTQPPSASGTPGQRVTISCSGSNSNIGNNYVYWYQQLPGTAPKLLIYRNNQWPSGVPDRFSASKSGTSASLAISGLRSEDEADYYCASWDDSLSALVFGGGTKLTVL
notes: full-length IgG; also called Ab 340
B9: ADI-22764 (antibody, V domains shown)
VH: QVQLVESGPGLVRPSGTLSLTCAVSGGSISGKNWWSWVRQPPGKGLEWIGEIDHSGSTNYNPSLKSRVTISVDKSKNQFSLKLSSVTAADTAVYYCARTGLYDSSGYYLYYFNYWGQGTLVTVSS
VL: EIVMTQSPSSLSASVGDRVTISCRASQTIASYVNWYQQRPGKAPNLLIFAASNLQTGVPSRFRGSGSGTVFTLTISSLQPEDFATYYCQQSYSTPRTFGQGTKVDIK
notes: full-length IgG
B10: ADI-14372 (antibody, V domains shown)
VH: QVQLLESGGGLVQPGGSLRLSCAASGFTFSNYAMGWVRQAPGQGLEWVSRISATGGSTHYADSVRGRFTISRDNSKNTLYLQMNSLKAEDTAVYYCAKDRGYSRNLTPDYWGQGTLVTVSS
VL: ETTLTQSPSSLSASVGDRVTITCRASQGITNDLGWYQKKPGKAPKLLIYVASSLQSGVPSRFSGSGSGTDFTLTISSLQPEDFATYYCLQDYNYPITFGQGTKVDIK
notes: full-length IgG; also called Ab 40
B11: ADI-24825 (antibody, V domains shown)
VH: QVQLVQSGAEVKKPGASVKVSCKASGYTFTSYDINWVRQATGQGLEWMGWMNPNSGNTGYAQKFQGRVTMTRNTSISTAYMELSSLRSEDTAVYYCSSVGGYYYYGMDVWGQGTTVTVSS
VL: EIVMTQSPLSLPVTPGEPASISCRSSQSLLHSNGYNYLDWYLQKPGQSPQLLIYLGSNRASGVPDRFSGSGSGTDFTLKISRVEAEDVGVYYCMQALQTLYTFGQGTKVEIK
notes: full-length IgG
B12: ADI-22777 (antibody, V domains shown)
VH: QVQLVQSGAEVKRPGASVKVSCKASEYTFNFHDINWVRQAPGQGLEWMGWMNPKSGNTGYAQKFQGRVTMTRDTSKNTAYLELSSLRSEDTAVYYCARGYGTSWSSDSWWGQGTLVTVSS
VL: SYELTQLPSVSVSPGQTARITCSGDALSKQFVYWYQQKPGLAPMLVIYKDTNRPSWIPERFSGSGSGTTATLTISEVQAEDEADYYCQSVDNSGTYGWVFGGGTKVTVL
notes: full-length IgG
B13: ADI-22780 (antibody, V domains shown)
VH: EVQLVESGPTLVKPTQTLTLTCTFSGFSLSTSGVGVGWIRQPPGKALEWLALIYWDDDKRYSPSLKSRLTITKDTSKNQVVLTMTNMDPVDTATYYCAHRGRQYSYGYYYFDYWGQGTLVTVSS
VL: QSVLIQPASVSGSPGQSITISCTGTSSDVGGYNFVSWYQQHPGKAPKLMIYDVSNRPSGVSNRFSGSKSGNTASLTISGLQAEDEADYYCSSYTSSTLDVFGTGTKVTVL
notes: full-length IgG
B14: ADI-25587 (antibody, V domains shown)
VH: QVQLVESGGGVVQPGRSLRLSCAASGFTFSSYGMHWVRQAPGKGLEWVAVIWYDGSNKYYADSVKGRFTISRDNSKNTLYLQMNSLRAEDTAVYYCARDSTYSEAFDIWGQGTMVTVSS
VL: B13 VL with F34Y, T97S, L98T, D99W, T103G
notes: full-length IgG
B15: ADI-19479 (antibody, V domains shown)
VH: QVQLVQSGAEVKKPGSSVKVSCKASGGTFSSNAINWVRQAPGQGLEWMGGIIPIFGTANYAQKFQGRVTITTDESTSTAYMELSSLRSEDTAVYYCATTFYYGSGADYWGQGTLVTVSS
VL: DIQMTQSPLSLPVTLGQPASISCRSSQSLVYSDGNMYLSWFQQRPGQSPRRLIYKVSNRDSGVPDRFSGSGSGTDFTLKISRVEAEDVGVYYCMQGTHWWTFGQGTKVEIK
notes: full-length IgG
B16: ADI-19483 (antibody, V domains shown)
VH: QVQLVQSGAEVKKPGESLKISCKGSGYSFTTYWIGWVRQMPGKGLEWMGIIFPGDSDTRYSPSFQGQVTISADKSISTAYLQWSSLKASDTAMYFCARSAFPFGFDIWGQGTMVTVSS
VL: SYVLTQPHSVSESPGKTVTISCTRSSGSIASNYVQWYQQRPGSSPTTVIYEDHQRPSGVPDRFSGSIDSSSNSASLTISGLQTEDEADYYCQSYGSGNPWVFGGGTKVTVL
notes: full-length IgG
B17: ADI-14379 (antibody, V domains shown)
VH: EVQLLESGGGVVQPGRSLRLSCAASGFTFSSYAMHWVRQAPGKGLEWVAVIGNDGTNKYHADSVKGRFTISRDNSKNTLYLQMNSLRAEDTAVYYCARRRVGIMYSGSYWGGMDVWGQGTTVTVSS
VL: SYELTQPPSVSVSPGQTASITCSGDKLGGKYVSWYQQKPGQSPVLVMYQDTRRPSGIPERLSGSNSGSTATLTISATQAMDEADYYCQAWDITTVHVVFGGGTKLTVL
notes: full-length IgG; also called Ab 47
B18: ADI-24803 (antibody, V domains shown)
VH: EVQLLESGGGLVLPGGSLRLSCAASGFTFSSYAMSWVRQAPGKGLEWVSAISGSGIYTYYADSVKGRFTISRDNSKNTLYLQMSSLRAEDTAVYYCAKGSLGMAYSAFDIWGLGTTVTVSS
VL: DIQLTQSPGTLSLSSGERATLSCRASQSVSSNYLAWYQQKPGQPPRLLIYGASSRATGIPDRFSGSGSGTDFTLTISRLEPEDFAVYYCQQYGSSPLTFGGGTKVDIK
notes: full-length IgG
B19: ADI-19486 (antibody, V domains shown)
VH: QVQLQESGPGLVKPSETLSLTCSVSGGSLTSYYWSWIRQPPGKGLEWIGYIYYSGSTNYNPSLKSRLTISVDTSKNQFSLKLSSVTAADTAVYYCARVGGRGVINVFDYWGQGTLVTVSS
VL: QPVLTQPASVSGSPGQSITISCTGTSSDVGGYNYVSWYQQHPGKAPKLMIYEVSNRPSGVSNRFSGSKSGNTASLTISGLQAEDEADYYCDSYRSNSASVVFGGGTKLTVL
notes: full-length IgG
B20: ADI-19484 (antibody, V domains shown)
VH: QVQLQESGSGLVKPSQTLSLTCVVSGGSISSGGNSWSWIRQPPGKGLEWIGYIYDSGNTYYNPSLKSRVTISVDRSKNQFSLKVSSVTAADTAVYYCARGAETGTTGWYDPWGQGTLVTVSS
VL: DIRLTQSPSSLSASVGDRVTITCRASQTISSYLNWYQQKPGKAPRLLIYAASSLQSGVPSRFSGSGSGTDFTLTISSLQPEDFATYYCQQSYGTPRTFGQGTKVEIK
notes: full-length IgG
B21: ADI-25575 (antibody, V domains shown)
VH: EVQLVESGAEVKKPGASVKVSCKASGYTFTSYYMHWVRQAPGQGLEWMGIINPSGGSTSYAQKFQGRVTMTRDTSTSTVYMELSSLRSEDTAVYYCARGPYDSSGYCDYWGQGTLVTVSS
VL: SYELTQPPSVSVAPGKTARITCGGNNIGSKSVHWYQQKPGQAPVLVVYDDSDRPSGIPERFSGSNSGNTATLTISRVEAGDEADYYCQVWDSSSDQVFGGGTKLTVL
notes: full-length IgG

What follows are binders tested against T1, RSV postfusion F (postF), subtype A (respiratory syncytial virus subtype A, UniProt P03420 26-513) (assay: BLI, IgG).
T1 construct: also called Postfusion subtype A; F deltaFP
B1 gave a Kd of 0.319 nM.
With B2 the Kd was 25.3 nM.
B3 gave a Kd of 0.801 nM.
B4 was tested, and the Kd was 9.57 nM.
For B5, the Kd was 0.209 nM.
B6 gave a Kd of 4.94 nM.
B7 showed a Kd of 0.211 nM.
With B8 the Kd was 1.19 nM.
B9 gave a Kd of 0.334 nM.
With B10 the Kd was 0.659 nM.
Binder B11 has a Kd of 30.1 nM.
B12 gave a Kd of 0.268 nM.
B13 showed a Kd of 0.739 nM.
With B14 the Kd was 9.23 nM.
With B15 the Kd was 3.69 nM.
Binder B16 has a Kd of 0.321 nM.
For B17, the Kd was 3.29 nM.
B18 was tested, and the Kd was 1.2 nM.
Binder B19 has a Kd of 0.525 nM.
For B20, the Kd was 0.369 nM.

Each binder was assayed against T2, RSV postfusion F (postF), subtype B (respiratory syncytial virus subtype B) (assay: BLI, IgG).
T2 construct: also called Postfusion subtype B
B1 gave a Kd of 5.33 nM.
For B2, the Kd was 26.2 nM.
Binder B3 has a Kd of 0.838 nM.
Work on B4 yielded a Kd of 9.17 nM.
B5 showed a Kd of 2.77 nM.
Work on B6 yielded a Kd of 5.01 nM.
Binder B7 has a Kd of 0.26 nM.
For B8, the Kd was 1.25 nM.
B9 showed a Kd of 1.44 nM.
B10 showed a Kd of 4.43 nM.
In the case of B11, the Kd is reported as 26 nM.
Binder B12 has a Kd of 0.224 nM.
B21 showed a Kd of 39.6 nM.
In the case of B13, the Kd is reported as 0.6 nM.
With B14 the Kd was 7.93 nM.
Binder B15 has a Kd of 2.69 nM.
In the case of B16, the Kd is reported as 0.153 nM.
B17 showed a Kd of 2.35 nM.
For B18, the Kd was 0.442 nM.
In the case of B19, the Kd is reported as 7.55 nM.
With B20 the Kd was 0.355 nM.

These binders were tested against T3, RSV prefusion F (preF), subtype B (respiratory syncytial virus subtype B) (assay: BLI, IgG).
T3 construct: also called Prefusion subtype B
With B1 the Kd was 10.8 nM.
In the case of B4, the Kd is reported as 19 nM.
B5 showed a Kd of 4.02 nM.
Binder B6 has a Kd of 44.4 nM.
B7 gave a Kd of 0.732 nM.
B8 was tested, and the Kd was 3.07 nM.
For B9, the Kd was 1.42 nM.
B12 gave a Kd of 0.762 nM.
With B13 the Kd was 23.8 nM.
For B16, the Kd was 1.77 nM.
B20 showed a Kd of 8.92 nM.

The binders below were run against RSV F on RSV subtype A virus (mKate-RSV A2) (respiratory syncytial virus A2, UniProt P03420 26-574) (assay: cell-based or functional assay).
For B21, the “Neut IC50 subtype A” value was 5.64 µg/mL.
